Results taken from IntAct's records for PubMed 22949673.

B1: 5-cytosine rRNA methyltransferase NSUN4 (Homo sapiens), Q96CB9-1 (parent)
chain: MAALTLRGVRELLKRVDLATVPRRHRYKKKWAATEPKFPAVRLALQNFDMTYSVQFGDLWPSIRVSLLSEQKYGALVNNFAAWDHVSAKLEQLSAKDFVNEAISHWELQSEGGQSAAPSPASWACSPNLRCFTFDRGDISRFPPARPGSLGVMEYYLMDAASLLPVLALGLQPGDIVLDLCAAPGGKTLALLQTGCCRNLAANDLSPSRIARLQKILHSYVPEEIRDGNQVRVTSWDGRKWGELEGDTYDRVLVDVPCTTDRHSLHEEENNIFKRSRKKERQILPVLQVQLLAAGLLATKPGGHVVYSTCSLSHLQNEYVVQGAIELLANQYSIQVQVEDLTHFRRVFMDTFCFFSSCQVGELVIPNLMANFGPMYFCKMRRLT
partner: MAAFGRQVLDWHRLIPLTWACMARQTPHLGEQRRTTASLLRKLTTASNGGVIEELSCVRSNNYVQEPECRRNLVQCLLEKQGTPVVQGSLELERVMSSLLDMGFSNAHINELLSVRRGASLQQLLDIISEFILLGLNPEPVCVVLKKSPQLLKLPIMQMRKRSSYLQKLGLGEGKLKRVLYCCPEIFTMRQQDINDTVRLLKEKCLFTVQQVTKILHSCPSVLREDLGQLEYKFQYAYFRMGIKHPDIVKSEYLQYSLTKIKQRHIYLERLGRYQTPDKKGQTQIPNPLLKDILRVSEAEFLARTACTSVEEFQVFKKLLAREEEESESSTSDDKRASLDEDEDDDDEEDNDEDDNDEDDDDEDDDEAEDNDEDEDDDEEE

Variants of: B1
Settings: with mtef4_human MTERF4, Q7Z6M4

effect of a mutation on the interaction	Variant
disrupting interaction strength	V65R;R136A;I139R;R141A
